Measured values as given in US20250297255A1 (ARSENAL BIOSCIENCES, published 2025).

B1: TMPRSS4 Ab41 scFv (VH-VL) (scFv)
scFv: QVQLVQSGAEVKKPGASVKVSCKASGGTFSSYAISWVRQAPGQGLEWMGWMNPNSGDTHYAQKFQGRVTMTRDTSTSTVYMELSSLRSEDTAVYYCAREGSSWYYDAFDIWGQGTLVTVSSGGGGSGGGGSGGGGSDIQMTQSPSSLSASVGDRVTITCRASQSISRWLAWYQQKPGKAPKLLIYAASTLQTGVPSRFSGSGSGTDFTLTISSLQPEDFATYYCLQHSSYPFTFGQGTKVEIK
notes: on monoclonal phage in the screen
B2: TMPRSS4 Ab44 scFv (VH-VL) (scFv)
scFv: QVQLVQSGAEVKKPGASVKVSCKASGYTFRNYYIHWVRQAPGQGLEWMGRINPNSGGTNYAQKFQGRVTMTRDTSTSTVYMELSSLRSEDTAVYYCARARIAVAVSGFGYWGQGTLVTVSSGGGGSGGGGSGGGGSDIQMTQSPSSLSASVGDRVTITCQASQDISNYLNWYQQKPGKAPKLLIYAASSLHSGVPSRFSGSGSGTDFTLTISSLQPEDFATYYCQESSSFPYTFGPGTKVDIK
notes: as for B1
B3: TMPRSS4 Ab42 scFv (VH-VL) (scFv)
scFv: QVQLVQSGAEVKKPGASVKVSCKASGYSFTSHYMHWVRQAPGQGLEWMGWMNPNSGNTGYAQKFQGRVTMTRDTSTSTVYMELSSLRSEDTAVYYCARLGQQLDYWGQGTLVTVSSGGGGSGGGGSGGGGSDIQMTQSPSSLSASVGDRVTITCRASQSIRNYLNWYQQKPGKAPKLLIYEASRLQSGVPSRFSGSGSGTDFTLTISSLQPEDFATYYCQQSYSAPPTFGPGTKVDIK
notes: as for B1
B4: TMPRSS4 Ab34 scFv (VH-VL) (scFv)
scFv: QVQLVQSGAEVKKPGASVKVSCKASGYTFTGYYIHWVRQAPGQGLEWMGWMNPHSGNTGYAQKFQGRVTMTRDTSTSTVYMELSSLRSEDTAVYYCAREGGRYSSGRLGYWGQGTLVTVSSGGGGSGGGGSGGGGSDIQMTQSPSSLSASVGDRVTITCRASQGISSWLAWYQQKPGKAPKLLIYAASTLQTGVPSRFSGSGSGTDFTLTISSLQPEDFATYYCQQSKSIPITFGGGTKVEIK
notes: as for B1
B5: TMPRSS4 Ab43 scFv (VH-VL) (scFv)
scFv: QVQLVQSGAEVKKPGASVKVSCKASGYTFIGYYMHWVRQAPGQGLEWMGRINPNSGETNYAQKFQGRVTMTRDTSTSTVYMELSSLRSEDTAVYYCARVRVRGVIHPGFDPWGQGTLVTVSSGGGGSGGGGSGGGGSDIQMTQSPSSLSASVGDRVTITCQASQDISNYLNWYQQKPGKAPKLLIYAASSLQSGVPSRFSGSGSGTDFTLTISSLQPEDFATYYCQQSYSTPVTFGPGTKVDIK
notes: as for B1
B6: TMPRSS4 Ab48 scFv (VH-VL) (scFv)
scFv: QVQLVQSGAEVKKPGASVKVSCKASGYTFTGYYLHWVRQAPGQGLEWMGWISAYNGNTNYAQNLQGRVTMTRDTSTSTVYMELSSLRSEDTAVYYCARHSYSGSYSTLPYYGMDVWGQGTTVTVSSGGGGSGGGGSGGGGSDIQMTQSPSSLSASVGDRVTITCRASQGISNYLAWYQQKPGKAPKLLIYTASTLFPGVPSRFSGSGSGTDFTLTISSLQPEDFATYYCQQSYSIPLTFGGGTKVEIK
notes: as for B1
B7: TMPRSS4 Ab38 scFv (VH-VL) (scFv)
scFv: QVQLAQSGAEVKKPGASVKVSCKASGYTFTRHYIQWVRQAPGQGLEWMGWINPNSGNTGYAQKFQGRVTMTRDTSTSTVYMELSSLRSEDTAVYYCARGRQWLRGEYFQHWGQGTLVTVSSGGGGSGGGGSGGGGSDIQMTQSPSSLSASVGDRVTITCQASQDISRYLNWYQQKPGKAPKLLIYGASNLLSGVPSRFSGSGSGTDFTLTISSLQPEDFATYYCQQTHTTPYTFGQGTRLEIK
notes: as for B1
B8: TMPRSS4 Ab4 scFv (VH-VL) (scFv)
scFv: QVQLVQSGAEVKKPGASVKVSCKASGYFFTTYYLHWVRQAPGQGLEWMGVINPNSRLTSYAESFQGRVTMTRDTSTSTVYMELSSLRSEDTAVYYCEREMFPSSYGIDVWGQGTTVTVSSGGGGSGSGGGGSGGGGSDIVMTQSPLSLPVTPGEPASISCRSSQSLLHSNGYNYLDWYLQKPGQSPQLLIYAASTLQSGVPDRFSGSGSGTDFTLKISRVEAEDVGVYYCMQGTHWPPTFGQGTKLEIK
notes: as for B1
B9: TMPRSS4 Ab45 scFv (VH-VL) (scFv)
scFv: QVQLVQSGAEVKKPGASVKVSCKASGYTFSRWYMHWVRQAPGQGLEWMGRINPNSGGTNYAQKFQGRVTMTRDTSTSTVYMELSSLRSEDTAVYYCARVGGYGWFDPWGQGTLVTVSSGGGGSGGGGSGGGGSDIQMTQSPSSLSASVGDRVTITCQATQDIRNYLNWYQQKPGKAPKLLIYATSSLQSGVPSRFSGSGSGTDFTLTISSLQPEDFATYYCQQSYSPPYTFGQGTKLEIK
notes: as for B1
B10: TMPRSS4 Ab36 scFv (VH-VL) (scFv)
scFv: EVQLLESGGGLVQPGGSLRLSCAASGFTFSSRAMSWVRQAPGKGLEWVSRINYDGSATTYADSVKGRFTISRDNSKNTLYLQMNSLRAEDTAVYYCARGITIFGVFDYWGQGTLVTVSSGGGGSGGGGSGGGGSDIQMTQSPSSLSASVGDRVTITCRASQSISTWLAWYQQKPGKAPKLLIYRASNLQSGVPSRFSGSGSGTDFTLTISSLQPEDFATYYCQQSYSTPLTFGGGTKVEIK
notes: as for B1
B11: TMPRSS4 Ab37 scFv (VH-VL) (scFv)
scFv: EVQLLESGGGLVQPGGSLRLSCAASGFTFSSYAMHWVRQAPGKGLEWVSYISSSGSTVYYADSVKGRFTISRDNSKNTLYLQMNSLRAEDTAVYYCARVSNVTPRSGFGYWGQGTLVTVSSGGGGSGGGGSGGGGSDIQMTQSPSSLSASVGDRVTITCRASQSISRYLNWYQQKPGKAPKLLIYSASTLQSGVPSRFSGSGSGTDFTLTISSLQPEDFATYYCQQAHSFPPSFGQGTKLEIK
notes: as for B1
B12: TMPRSS4 Ab40 scFv (VH-VL) (scFv)
scFv: QVQLVQSGAEVKKPGASVKVSCKASGGTFSSYAISWVRQAPGQGLEWMGIINPRGGSTNYAQKFQGRVTMTRDTSTSTVYMELSSLRSEDTAVYYCAREGSSWYYDAFDIWGQGTMVTVSSGGGGSGGGGSGGGGSDIQMTQSPSSLSASVGDRVTITCRASQSISSYLNWYQQKPGKAPKLLIYAAYNLQSGVPSRFSGSGSGTDFTLTISSLQPEDFATYYCQQSYSIPFTFGGGTKVEIK
notes: as for B1
B13: TMPRSS4 Ab30 scFv (VH-VL) (scFv)
scFv: QVQLVQSGAEVKKPGASVKVSCKASGYTFTTYYMHWVRQAPGQGLEWMGWMNPNSGNTGYAQKFQGRVTMTRDTSTSTVYMELSSLRSEDTAVYYCARARTWLLSPFDYWGQGTLVTVSSGGGGSGGGGSGGGGSEIVMTQSPATLSVSPGERATLSCRASQSVGRYLAWYQQKPGQAPRLLIYGASTRATGIPARFSGSGSGTEFTLTISSLQSEDFAVYYCQHYDSSPMYTFGQGTKLEIK
notes: as for B1
B14: TMPRSS4 Ab32 scFv (VH-VL) (scFv)
scFv: QVQLVQSGAEVKKPGSSVKVSCKASGGTFSSYAISWVRQAPGQGLEWMGRINPSGGSTSYAQKFQGRVTMTRDTSTSTVYMELSSLRSEDTAVYYCARGRYSSSSWGQGTLVTVSSGGGGSGGGGSGGGGSDIQMTQSPSSLSASVGDRVTITCRASQSISTYLNWYQQKPGKAPKLLIYAASSLQRGVPSRFSGSGSGTDFTLTISSLQPEDFATYYCQQSYTTPLTFGGGTKVEIK
notes: as for B1
B15: TMPRSS4 Ab35 scFv (VH-VL) (scFv)
scFv: QVQLVQSGAEVKKPGASVKVSCKASGYTFTGYYMHWVRQAPGQGLEWMGKISAHSGETKYAQNVQGRVTMTRDTSTSTVYMELSSLRSEDTAVYYCARANYYGDYVNYYYGMDVWGQGTTVTVSSGGGGSGGGGSGGGGSDIQMTQSPSSLSASVGDRVTITCQASQDISNYLNWYQQKPGKAPKLLIYKASSLESGVPSRFSGSGSGTDFTLTISSLQPEDFATYYCQQTYTIPITFGQGTRLEIK
notes: as for B1
B16: TMPRSS4 Ab33 scFv (VH-VL) (scFv)
scFv: QVQLVQSGAEVKKPGASVKVSCKASGYTFSNYYMHWVRQAPGQGLEWVGWMNPKSGNTGYAQKFQGRVTMTRDTSTSTVYMELSSLRSEDTAVYYCARGRTWIQSSLGYWGQGTLVTVSSGGGGSGGGGSGGGGSDIQMTQSPSSLSASVGDRVTITCRASQYISRWLAWYQQKPGKAPKLLIYGSSTLQSGVPSRFSGSGSGTDFTLTISSLQPEDFATYYCQQYYSTPFTFGPGTKLEIK
notes: as for B1
B17: TMPRSS4 Ab3 scFv (VH-VL) (scFv)
scFv: QVQLVQSGAEVKKPGSSVKVSCKASGYTFTSYDINWVRQAPGQGLEWMGGIIPIFGTTKFAQKFQGRVTITADESTSTAYMELSSLRSEDTAVYYCARDWYSSSWYNGDRGDWFDPWGQGTLVTVSSGGGGSGGGGSGGGGSDIVMTQSPLSLPVTPGEPASISCRSSGSLLHSNGYNYLDWYLQKPGQSPQLLIYAASSLQSGVPDRFSGSGSGTDFTLKISRVEAEDVGVYYCMQGTHWPGTFGQGTKVEIK
notes: as for B1
B18: TMPRSS4 Ab31 scFv (VH-VL) (scFv)
scFv: QVQLVQSGAEVKKPGSSVKVSCKASGYTFRGSGISWVRQAPGQGLEWMGIIYPADSETRYSPSFQGRVTITADESTSTAYMELSSLRSEDTAVYYCARESSSWDYFDYWGQGTLVTVSSGGGGSGGGGSGGGGSEIVMTQSPATLSVSPGERATLSCRASQSVRSYLAWYQQKPGQAPRLLIYGASTRATGIPARFSGSGSGTEFTLTISSLQSEDFAVYYCQQHGSLPLTFGQGTKVEIK
notes: as for B1
B19: TMPRSS4 Ab28 scFv (VH-VL) (scFv)
scFv: QVQLVQSGAEVKKPGASVKVSCKASGYTFTGYYMHWVRQAPGQGLEWMGWMNPNSGNTGYAQKFQGRVTMTRDTSTSTVYMELSSLRSEDTAVYYCARLRAKGGGFDYWGQGTLVTVSSGGGGSGGGGSGGGGSDIQMTQSPSSLSASVGDRVTITCRASQGIGNYLAWYQQKPGKAPKLLIYAASSLESGVPSRFSGSGSGTDFTLTISSLQPEDFATYYCQQGYRFPPTFGPGTKVDIK
notes: as for B1
B20: TMPRSS4 Ab39 scFv (VH-VL) (scFv)
scFv: QVQLVQSGAEVKKPGASVKVSCKASGGSFSGYAVSWVRQAPGQGLEWLGVINPSDSWTAFAQKFQGRVTMTRDTSTSTVYMELSSLRSEDTAVYYCAREREDDAFDIWGQGTTVTVSSGGGGSGGGGSGGGGSDIQMTQSPSSLSASVGDRVTITCRASQGIRNWLAWYQQKPGKAPKLLIYRASTLQSGVPSRFSGSGSGTDFTLTISSLQPEDFATYYCQQSYTTPFTFGQGTKLEIK
notes: as for B1

Target: T1, Human TMPRSS4 (Transmembrane protease, serine 4), wild type full length (human, UniProt Q9NRS4 1-437)
T1 construct: Type II membrane protein over-expressed on HEK293T cells (also endogenous on H1975 and LUDLU-1 cells); also called TMPRSS4 WT; HEK293T-TMPRSS4
T1 sequence (Q9NRS4 whole entry): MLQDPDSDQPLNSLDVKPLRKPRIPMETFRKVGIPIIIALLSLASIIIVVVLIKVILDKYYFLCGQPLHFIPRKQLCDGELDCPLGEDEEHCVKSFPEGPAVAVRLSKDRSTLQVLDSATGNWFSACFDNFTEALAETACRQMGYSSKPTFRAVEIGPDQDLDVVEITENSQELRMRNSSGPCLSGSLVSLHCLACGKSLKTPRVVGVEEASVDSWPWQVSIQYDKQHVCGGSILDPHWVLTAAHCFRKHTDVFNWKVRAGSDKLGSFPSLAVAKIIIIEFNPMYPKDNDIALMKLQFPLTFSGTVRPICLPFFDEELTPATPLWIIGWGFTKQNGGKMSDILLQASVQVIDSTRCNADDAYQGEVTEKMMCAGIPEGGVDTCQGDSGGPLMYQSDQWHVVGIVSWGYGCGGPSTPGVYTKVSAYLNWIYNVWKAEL
Test: flow cytometry, monoclonal phage on HEK293T-TMPRSS4 cells;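 further: bound phage detected with a PE-labelled mouse anti-M13 monoclonal antibody, read by flow cytometry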
Experimental: Monoclonal phages were prepared, screened for binding to HEK293T-TMPRSS4 cells by flow cytometry. Monoclonal phage clones were incubated with HEK293T-TMPRSS4 cells, the cells were washed and then incubated with a PE conjugated mouse anti-M13 mAb, and washed again before being analyzed by flow cytometry. The positive candidates were selected based on cytometry results, then followed by next-gen sequencing of the positive hits.

Row | Binder | binding result
1 | B1 | binds
2 | B2 | binds
3 | B3 | binds
4 | B4 | binds
5 | B5 | binds
6 | B6 | binds
7 | B7 | binds
8 | B8 | binds
9 | B9 | binds
10 | B10 | binds
11 | B11 | binds
12 | B12 | binds
13 | B13 | binds
14 | B14 | binds
15 | B15 | binds
16 | B16 | binds
17 | B17 | binds
18 | B18 | binds
19 | B19 | binds
20 | B20 | binds
